Results taken from patent US20250352667A1.
Each block holds one substance with its values, some of them ahead of it.

Legend:
[1] = target: KEAP1 (wild-type full-length), His-tagged (human) (UniProt Q14145); assay: AlphaScreen; 9.6 nM FLAG-NRF2, 150 nM His-KEAP1 (same value as in Table 23)
[2] = target: KEAP1 (wild-type full-length), His-tagged (human) (UniProt Q14145); assay: AlphaScreen, all variants on one plate; upper condition (38.4 nM NRF2), KEAP1 150 nM; relative to NRF2 (WT) isoform 2
[3] = target: KEAP1 (wild-type full-length), His-tagged (human) (UniProt Q14145); assay: AlphaScreen, all variants on one plate; lower condition (9.6 nM NRF2), KEAP1 150 nM; relative to NRF2 (WT) isoform 2
[4] = target: KEAP1 (wild-type full-length), His-tagged (human) (UniProt Q14145); assay: AlphaScreen; over 9.6, 19.2 and 38.4 nM NRF2; 150 nM His-KEAP1
[5] = target: KEAP1 (wild-type full-length), His-tagged (human) (UniProt Q14145); assay: AlphaScreen; mean over 9.6, 19.2 and 38.4 nM NRF2; 150 nM His-KEAP1; against wild-type NRF2 isoform 2 = 100%
[6] = target: KEAP1 (wild-type full-length), His-tagged (human) (UniProt Q14145); assay: AlphaScreen; average of three conditions; against wild-type NRF2 isoform 2
[7] = target: KEAP1 (wild-type full-length), His-tagged (human) (UniProt Q14145); assay: AlphaScreen; 9.6 nM FLAG-NRF2, 150 nM His-KEAP1; signal against NRF2 only
[8] = target: KEAP1 (wild-type full-length), His-tagged (human) (UniProt Q14145); assay: AlphaScreen, all variants on one plate; optimal condition (19.2 nM NRF2), KEAP1 150 nM; relative to NRF2 (WT) isoform 2
[9] = target: KEAP1 (wild-type full-length), His-tagged (human) (UniProt Q14145); assay: AlphaScreen, all variants on one plate; average of three conditions ± standard deviation, KEAP1 150 nM; relative to NRF2 (WT) isoform 2
[10] = target: KEAP1 (wild-type full-length), His-tagged (human) (UniProt Q14145); assay: AlphaScreen; 38.4 nM FLAG-NRF2, 150 nM His-KEAP1; Repeat 2 (same value as in Table 23)
[11] = target: KEAP1 (wild-type full-length), His-tagged (human) (UniProt Q14145); assay: AlphaScreen; 38.4 nM FLAG-NRF2, 150 nM His-KEAP1; against wild-type NRF2 isoform 2 = 100%
[12] = target: KEAP1 (wild-type full-length), His-tagged (human) (UniProt Q14145); assay: AlphaScreen; mean over 9.6, 19.2 and 38.4 nM NRF2; 150 nM His-KEAP1; against wild-type NRF2 isoform 2
[13] = target: KEAP1 (wild-type full-length), His-tagged (human) (UniProt Q14145); assay: AlphaScreen; 9.6 nM FLAG-NRF2, 150 nM His-KEAP1; Repeat 2 (same value as in Table 23)
[14] = target: KEAP1 (wild-type full-length), His-tagged (human) (UniProt Q14145); assay: AlphaScreen; standard deviation of three conditions; against wild-type NRF2 isoform 2
[15] = target: KEAP1 (wild-type full-length), His-tagged (human) (UniProt Q14145); assay: AlphaScreen; 38.4 nM FLAG-NRF2, 150 nM His-KEAP1; Repeat 1 (same value as in Table 23)
[16] = target: KEAP1 (wild-type full-length), His-tagged (human) (UniProt Q14145); assay: AlphaScreen; 19.2 nM FLAG-NRF2, 150 nM His-KEAP1 (same value as in Table 23)
[17] = target: KEAP1 (wild-type full-length), His-tagged (human) (UniProt Q14145); assay: AlphaScreen; 19.2 nM FLAG-NRF2, 150 nM His-KEAP1; against wild-type NRF2 isoform 2 = 100%
[18] = target: KEAP1 (wild-type full-length), His-tagged (human) (UniProt Q14145); assay: AlphaScreen; 38.4 nM FLAG-NRF2, 150 nM His-KEAP1; Repeat 2 (same value as in Table 22)
[19] = target: KEAP1 (wild-type full-length), His-tagged (human) (UniProt Q14145); assay: AlphaScreen; 19.2 nM FLAG-NRF2, 150 nM His-KEAP1; Repeat 2 (same value as in Table 22)
[20] = target: KEAP1 (wild-type full-length), His-tagged (human) (UniProt Q14145); assay: AlphaScreen; 19.2 nM FLAG-NRF2, 150 nM His-KEAP1; wild type set to 100%
[21] = target: KEAP1 (wild-type full-length), His-tagged (human) (UniProt Q14145); assay: AlphaScreen; 38.4 nM FLAG-NRF2, 150 nM His-KEAP1; wild type set to 100%
[22] = target: KEAP1 (wild-type full-length), His-tagged (human) (UniProt Q14145); assay: AlphaScreen, all variants on one plate; upper condition (38.4 nM NRF2), KEAP1 150 nM; the reference itself
[23] = target: KEAP1 (wild-type full-length), His-tagged (human) (UniProt Q14145); assay: AlphaScreen; 9.6 nM FLAG-NRF2, 150 nM His-KEAP1 (same value as in Table 22)
[24] = target: KEAP1 (wild-type full-length), His-tagged (human) (UniProt Q14145); assay: AlphaScreen; 38.4 nM FLAG-NRF2, 150 nM His-KEAP1 (same value as in Table 22)
[25] = target: KEAP1 (wild-type full-length), His-tagged (human) (UniProt Q14145); assay: AlphaScreen; 19.2 nM FLAG-NRF2, 150 nM His-KEAP1 (same value as in Table 22)
[26] = target: KEAP1 (wild-type full-length), His-tagged (human) (UniProt Q14145); assay: AlphaScreen, all variants on one plate; average of three conditions, KEAP1 150 nM; the reference itself
[27] = target: KEAP1 (wild-type full-length), His-tagged (human) (UniProt Q14145); assay: AlphaScreen; 19.2 nM FLAG-NRF2, 150 nM His-KEAP1; Repeat 1 (same value as in Table 22)

KEAP1 (wild-type full-length), His-tagged (human), sequence (Q14145 2-624 limits assumed, form in doubt): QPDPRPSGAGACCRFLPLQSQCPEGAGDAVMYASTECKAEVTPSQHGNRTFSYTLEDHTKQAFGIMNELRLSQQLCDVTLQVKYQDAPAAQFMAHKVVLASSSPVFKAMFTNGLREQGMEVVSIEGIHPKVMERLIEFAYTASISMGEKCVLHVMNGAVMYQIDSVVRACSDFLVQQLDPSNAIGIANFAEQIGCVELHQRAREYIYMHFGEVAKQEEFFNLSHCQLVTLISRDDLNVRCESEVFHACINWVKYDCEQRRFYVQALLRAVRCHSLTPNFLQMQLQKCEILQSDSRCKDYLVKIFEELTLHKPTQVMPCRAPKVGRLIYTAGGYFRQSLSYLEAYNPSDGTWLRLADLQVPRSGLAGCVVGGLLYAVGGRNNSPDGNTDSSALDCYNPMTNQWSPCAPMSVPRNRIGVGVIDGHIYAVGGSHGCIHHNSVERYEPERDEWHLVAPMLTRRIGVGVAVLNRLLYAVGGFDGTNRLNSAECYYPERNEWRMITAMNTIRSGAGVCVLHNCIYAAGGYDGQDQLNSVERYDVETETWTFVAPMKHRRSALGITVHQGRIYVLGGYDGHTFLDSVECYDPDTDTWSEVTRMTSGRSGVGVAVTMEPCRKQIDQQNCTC

- S/N [1]: 1.8
- % Disruption in Binding [2]: 61.9%
- % Disruption in Binding [3]: 63.4%
- Standard Deviation (of binding percentage) [4]: 10.2%
- Average Binding [5]: 30.9%
- Reported Value (reduction in binding) [6]: 69.1%
- S/N [7]: 1.8
- % Disruption in Binding [8]: 59.7%
- % Disruption in Binding (Reported Values) [9]: 61.7%
- A-counts [10]: 1960 A-counts
- Binding Percentage (%) [11]: 37.8%
- Avg. Reduction in Binding [12]: 69.1%
- A-counts [13]: 1520 A-counts
- Reported Value (standard deviation of reduction in binding) [14]: 10.2%
- A-counts [15]: 2120 A-counts
- S/N [16]: 1.8
- Binding Percentage (%) [17]: 19.2%
Substance: NRF2 isoform 2 (E63G/E66G full-length), FLAG-tagged

- A-counts [18]: 3460 A-counts
- A-counts [19]: 3260 A-counts
- Binding Percentage (%) [20]: 100%
- Binding Percentage (%) [21]: 100%
- % Disruption in Binding [22]: 0%
- S/N [7]: 3.7
- S/N [23]: 3.7
- S/N [24]: 3.4
- S/N [25]: 4.2
- % Disruption in Binding (Reported Values) [26]: 0%
- A-counts [27]: 3480 A-counts
Substance: NRF2 isoform 2 (wild-type full-length), FLAG-tagged
